Assay: yeast display, Sf9 membrane polyspecificity reagent, FACS + sequencing; frameworks hold sequencing errors
In short: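 In a synthetic yeast display library (Saccharomyces cerevisiae BJ5465), nanobody expression was induced with galactose for 36–48 hours. FACS gates were set low and high (top ~1%) using anti-HA fluorescence for expression and streptavidin fluorescence for binding of the Sf9 membrane reagent. Each polyreactivity label is drawn from the gate of origin.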

Sequence	polyreactivity (PSR sort gate)
QVQLVESGGGLVQAGGSLRLSCAASGFIFVEYAMGWYRQAPGKERELVAAISGRDGSTYYADSVKGRFTISRDNAKNTVYLQMNSLKPEDTAVYYCAADRIHSVTRYDYDYWGQGTQVTVSS	low polyreactivity
QVQLEESGGGLVKAGGSLSLSCAASGRTFYSYAMGWYRQAPGKERELVAAISAGGSTYYADSVQGRFTSSRDNAMNTLNLQMTSLKPEDTAVYYCAATYSYYYARYHYWGQGTQVTVSS	high polyreactivity
QVQLVESGGGLVQAGGRLRLSCAASGLIFDYYAMGWYRQAPGKERELVAAISYSGGRTYYADSVKCRFTISRDNAKNTVYLQMNSLKPEDTAVYYCNKVVLQPVIVDHDYWGQGTQVTVSS	low polyreactivity
QVQLVESGGCLVQAGGSLRLSCAASGSIINYYAMGWFRQAPGKERELVAGITTSGGSTYYADSVKGRFTISRDNAKHTVDLQMNSLKPEDTAVYYCAAYDYSSSTYFLDDYWGQGTQVTVSS	low polyreactivity
QVQLVESGGGLFQAGGSLRLSCAASGRIFDYNVMGWYRQAPGKERELVADINGSGGGTNYADSVKGRFTISRDNAKNTVYLQMNSLKPEDTAVYYCNADSYEYHVPYYDYRYDYWGQGTQVTVSS	low polyreactivity
QVQLVESGGGLVQAGGSLRLSCAASGITFLDNDMGWYRQAPVKERELVAAITSGVSTYYADSVKGRFTISRDNAKNTVYLQMNSLKPEDTAVYYCAADRPDVAGDYGGQGTQVTVSS	low polyreactivity
QVQLVESGGGLVQAGGSLRLSCAASGIIFSSYAMGWYRQAPGKERELVAAITYNGGRTYYADSVKGRFTISRDNAKNTVYLQMNSVKPEDTAVYYCAAERYPYGVTYSKLDYWGQGTQVTVSS	high polyreactivity
QVQLVESGGGLVQAGGSLRLSCAAYGSIFWSYAMGWYIQAPGKERELVAGITRSGGSTYYSDSVKGRFTISRDNAKNPVYLQMISLKPEDTAVYYCNKAFGGDKYSGSYEYWGQGNQVTVSS	high polyreactivity
QVQLEESGGGLVQAGGSLRLSCAASGRTSLAYAMGWYRQATGKEMELVAGITSGGNTNYADSVKGRFTISCDNAKNTVYLQMNSLKPEDTAVYYCNKKKRWQWYSDSVLDYLGFYSWGQGTQVTVSS	low polyreactivity
QVQLVESGGGLVQAGGSLRLSCAASGFTYRYYAMGWYRQSPGKERELVAAISSGGNTRYADSVKGRFTISRDNAKNTVYLQMTSLKPEDTAVYYCARRPGDWKYVYTGDYWGQGTQVTVSS	high polyreactivity
QVQLVESGGGLVQAGGSLRLSCAASGRIFTYNTMGWYRQAPGKERELVAAISGSGGITYYADSVKGRFTISRDNAKNTVYLQMNSLKPEDTAVYYCNTVPLYVSRYPYDYWGQGTQVTVSS	low polyreactivity
QVQLVESGGGLVQAGGSLRLSCAASGFTLAWYAMGWYRQAPGKERELVATIRSGGNTYYADSVKGRFTISRDNAKNTVYLQMNSLKPEDTAVYYCAKTHTYPRYGRGYDYWGQGTQVTVSS	high polyreactivity
QVQLVESGGGLVQAGGSLRLSCAASGSIFAPYSMGWYRQAPGKERELVAAITWSGDSTYYADSVKGRFTISRDNAKNTVYLQMNSMKPEDTSVYYCATEEVYGQGNYWGQGTQLTVSS	low polyreactivity
QVQLVESGGGLVQAGGSLRLSCAASRFTFVRYAMGWYRQAPGKEREFVASISARGGNTFYADSVKGRFTISRDNAKNTVYLQMNSLKPEDTAVYYCAASRRVGEVSYYYWGQGTQVTVSS	high polyreactivity
QVQLVESGGGLVQAGGSLRLSCAASGRIFVKNAMGWYRQAPGKERELVAAISSSSGSTYYADSVKGRFTISRDNAKNTVYLQMNSLKPEDTAVYYCATVRWYYSRPRPTTAYGYWGQGTQVNVSS	high polyreactivity
QVQLVESGGGLVQAGGSLRLSCAACGFTFLRYVMGWYRQAPGKERELVAAISYSGGRTYYADSVKGRFTISRDNAKNTVYLQMNSLKPEDTAVYYCAAARPVGYPPVLKYAYWGQGTQVTVSS	high polyreactivity
QVQLVESVGGLVQAGGSLRLICDASGFTFYAYAIGWYRQAPGKERELVAAITYIGSTYYADSVKGRFTISRDNAKNTVYLQMNSLKPEETAVYYCAVEFLPSFNRYDYWGQGTQVTVSS	low polyreactivity
QVQLVESGGGLVQAGGSLRLSCAASGIIFAGNAMGWYRQAPGKERELVAVITSGGSTYYADSVKGRFTISRDNAKNTVYLQMNSLKPEDTAVYYCNKVYYAYRVSLYRYGYWGQGTQVTVSS	high polyreactivity
QVQLVESGGGLVQAGGSLRLSCAASGITFEGYAMGRYRQAPGKERELVAAITGSGSTTYYADSVKGRFTISRDNAKNTVYLQMNSLKPEDTAVYYCAADVSYKLYWGQGTQVTVSS	low polyreactivity
QVQLVESGGGLVQAGGSLRLSCAASGRTFRYYTMGWYRPAPGKEREFVSSISWNGGSTYYADSVKGRFTISRDNAKNTVYLQIKSLKPEDTAVYYCSADDPYRVYRGPYGYWGQCTQVTVSS	high polyreactivity
QVQLVESGGGLVQAGGSLRLSCAASGRIFPPYDMGWYRQATGKEREFVAAIDWTGGSTYYADSVKGRFTISRDNAKNTVYLQMNSLKPEDTAVYYCNAEQSYRGVGWRYDYWGQGTQVTVSS	low polyreactivity
QVQLVESGGGLVQAGGSLRLSCAASGSIFYFYAMGWYRQAPGKERELVAAITSGGSTYYADSVEGRFTISRDNAKNTVYLQMNSLKPEDTAVYYCAAQFYDLYHGTTYDYWGQGTQVTVSS	high polyreactivity

Sequence	polyreactivity (PSR sort gate)
QVQLVESGGGLVQAGGSLRLSCAASGSTFSSLIMGCYRQAPGKERELVAAISRSGGRTYYADSVKGRFTISRDNAKNTVYLQMNSLKPEDTAVYYCAADYVSVDRIRYGYWGQGTQVTVSS	high polyreactivity
QVQLVESGGGLVQAGGSLRLSCAASGITFFQYAMGWSRQAPGKERELVAAISRSGSRTYYADSVKGRFTISRDNAKNTVYLQLNSLKQEDTAVYYCAAARVNDHYGYYRQMNYWGQCTQVTVSS	high polyreactivity
QVQLVESGGGLVQAGGSLRLSCAASGLIFDHNAMGWYRQAPGKERELVAAISYSGARTYYADSVKGRFTISRDNAKNTVYLQMYSLKPEDTAVYYCNAVINSHRRHVTYDYWGQGSQVTVSS	high polyreactivity
QVQLVESGGGLVQAGGSLRLSCAASGRTIRHNAMGWYRQARGKERELVAAISRSGGSTYYADSVKGRFTISRDNAKNTVYLQMNSLKPEDTAVYYCAAGYHIIYTPEYYYWGQGTQVTVSS	high polyreactivity
QLQHVESGGCLVQAGASLRLSCAASRLIFFYYAMGWSRQAPGKERELVAAIRTNYADSVKGRITSSRDNAKNTVYLQMNSQKPEDTAVYYCAAESSQSPTSAFDYWGQGTQVTVSA	low polyreactivity
QVQLVESGGGLVQAGGSLRLSCAASGRIFERNAMGWYRQAPGKERELVARITSGGGTYYADSVKGRFTISRDNAKNSVYLQMNSLKPEDTAVYYCAVQYLYRKYRRYDYWGQGTQVTVSS	high polyreactivity
QVQLVESGVGLVQARGSLRLSCAASGSIFKYYTRRWYRQAPGKERELVSGISYRGGSTYSADSVKGRFTISRDNAKNTVYLQMNSLKPEDTAVYYCYAFLLSGGDYWGQGSQVTVSS	high polyreactivity
QVQLVESVGGLVQAGGSLRLSCAASGRIFRYYAMGWSSQAPGKESELVAAITSDGRTYYADSVKGRFTISRDNAKNTVYLQMNSQKPEDTAVYYCAADHHSYRYGGYYYWGQGTQVTVAS	low polyreactivity
QVQLVESGGGLVQAGGSLRLSCASSGSIFTCYTMGWYRQAPGKEMELVAAISQTGGRTYYADSVKVRFTISRDNAKNTVYLQMNSLKAEDTAVYYCAARSKRLAHDYWGQGTQVTVSS	high polyreactivity
QVQLVESGGGLVQAGGSLRLSCAASVITFNYNARGWYRQAPGKERELVARITWSGTRTYYADSVKGRFTMSRDNANNTVYLQMNSLKPEDTGVYYCNAGPYARYYWGQGTQVTVSS	high polyreactivity
QVQLVESGGGLVQAGGSLRFSCAASGLTFSWNAMGWDRQAPGQERELVAAITSSGTSTYYADSVKGRFSISRDNAKITVYLQMHSLKPEDTAVYYGAAEGDYWGWEDDYWGQGTQVTVSS	high polyreactivity
KVQLVESGGGLVQAGGSLRLSCAASGLNFGRYAMGWYRQAPGKERELVAAISSSGVRTYYADSVKGRFTISRHNAKNTVYLQMNSLKPADTAVYYCAAAYWSSREDTVIKRYYWGQGTQVTVSS	high polyreactivity
QVQLVESVGGLVQAGGSLRLSCAASGSIFVKNAMGWYRQAPGKEREFVAVISTGDSTHYADSVKGRFTISRDNAKNTVYLQMNSLKPEDTAVYYCAARYYSYGSSYGYWGQGTQVTVSS	high polyreactivity
QVQLVESGGGLVQAGGSLRLSCAASGITFSHYAMGWYRQAPGKEREFVAAIRYSGGRTYYADSVKGRFTISRDNAKNTVYLQMNSLKPEDTAVYYCAAVVPDRYWGQGTQVTVSS	high polyreactivity
QVQLVESGGGLVQAGGSLRLSCAASGSIIGIYAMGWYRQAPGKEREMVAAINRGGSTYYADSVKGRFTISRDNAKNTVYLQMNSLKPEDTAVYYCSASPPYNTEFDYWGQGTQVTVSS	low polyreactivity
QVQLQESGGGLVQASGSIFHEPTMGWYRQAPGKERELVAGISSGANTYYADSGKGRCTISRDNAKNTVYLQMNSLKPEDTAVYYCNARRRYSLTMDYWGHGTQVTVSS	high polyreactivity
QVQLVESGGGLVQAGGSLRLSCAASGSIFNSNAMGWYRQAPGKERELVAAITGSGGRTYYADSVKGRFTISRDNAKNTVYLQMNSLKPEDTAVYYCNAVTYSRRYAYYDWGQGTQVTVSS	high polyreactivity
QVQLVDSGGGLVQAGVSLRLSCAASGSTFVFYAMGWYRQAPGKERELVAGISWSGGSTYYADSVKGRFTISRDNAKNTVYLQMNSLKPEDTAVYYCAARYTRYLGSGYYYCGQGTQVTVSS	high polyreactivity
QVQLVESGGGLVQAGGSLRLSCAASGRTFNGYALGGYRQAPGKERELVAAICSSGGSTYYADSVKGRFTISRDNAKNTVYLQMNSLKPEDTAVYYCAARRANGFNYWGQGTQVTVSS	high polyreactivity
QVQLVESGGGLVQAGGSLRLSCAACGIIFSWYAMGWYRQAPGKERELVAAISSSGGTTFYADSVKGRFTISRDKAKNTVYLQMNSLKPEDTAVYYCAVVGPPYYTWRVWRPAYDYWGQGTQVTVSS	high polyreactivity
QVQLVESGGGLVQAGGSLRLTCAASGFTFARNTMGWYRQAPGKERELVAAISKNGGSTYYADSVKGRFTISRDNAKNTVYLQMNSLTPEDTAVYYCNTYPSKVGRYSVKDYEYGYWGQGTQVTVSS	high polyreactivity

From the nanobody polyreactivity screen of Harvey et al. (2022)
